The text below walks through data of patent publication US10500249B2, “Compositions and methods for preventing or treating diseases, conditions, or processes characterized by aberrant fibroblast proliferation and extracellular matrix deposition” (MOERAE MATRIX, INC., priority 2014, dated 2019).

What all share (test): Kinase Profiling Assay
Common to all, as to type: biochemical
Holding throughout (settings): 100 μM

Experiment [1] addresses T1, BrSK1 (h) (Homo sapiens, UniProt Q8TDC3).
T1 sequence (Q8TDC3 1-778): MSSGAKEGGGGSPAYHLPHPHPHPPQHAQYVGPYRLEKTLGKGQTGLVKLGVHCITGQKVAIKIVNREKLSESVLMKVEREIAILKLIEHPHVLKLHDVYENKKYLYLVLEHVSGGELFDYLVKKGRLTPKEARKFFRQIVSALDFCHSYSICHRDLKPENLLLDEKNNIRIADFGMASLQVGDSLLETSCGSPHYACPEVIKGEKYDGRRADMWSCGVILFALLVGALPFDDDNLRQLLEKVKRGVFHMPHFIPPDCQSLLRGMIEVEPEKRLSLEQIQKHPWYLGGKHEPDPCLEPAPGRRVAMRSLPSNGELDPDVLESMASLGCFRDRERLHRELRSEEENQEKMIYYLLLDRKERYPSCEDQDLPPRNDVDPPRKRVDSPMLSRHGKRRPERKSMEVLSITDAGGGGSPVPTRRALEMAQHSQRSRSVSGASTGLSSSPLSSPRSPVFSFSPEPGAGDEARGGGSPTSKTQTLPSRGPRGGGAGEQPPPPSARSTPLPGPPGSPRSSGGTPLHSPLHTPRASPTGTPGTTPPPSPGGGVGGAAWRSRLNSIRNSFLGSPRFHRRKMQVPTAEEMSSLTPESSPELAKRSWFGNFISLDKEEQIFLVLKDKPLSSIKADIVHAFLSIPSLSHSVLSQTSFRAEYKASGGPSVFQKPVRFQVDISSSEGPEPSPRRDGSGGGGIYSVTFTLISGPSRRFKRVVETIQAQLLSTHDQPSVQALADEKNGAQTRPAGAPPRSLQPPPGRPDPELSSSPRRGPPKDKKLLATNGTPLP
A digest of the protocol: (§1)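 Scintillation counting quantifies radiolabeled, positively charged substrate retained on a negatively charged filter after kinase reaction with labeled ATP; inhibitor peptide present.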

Experiment [2] concerns the target T2, CaMKIV (h) (Homo sapiens, UniProt Q16566).
T2 construct: purchased Millipore
T2 sequence (Q16566 1-473): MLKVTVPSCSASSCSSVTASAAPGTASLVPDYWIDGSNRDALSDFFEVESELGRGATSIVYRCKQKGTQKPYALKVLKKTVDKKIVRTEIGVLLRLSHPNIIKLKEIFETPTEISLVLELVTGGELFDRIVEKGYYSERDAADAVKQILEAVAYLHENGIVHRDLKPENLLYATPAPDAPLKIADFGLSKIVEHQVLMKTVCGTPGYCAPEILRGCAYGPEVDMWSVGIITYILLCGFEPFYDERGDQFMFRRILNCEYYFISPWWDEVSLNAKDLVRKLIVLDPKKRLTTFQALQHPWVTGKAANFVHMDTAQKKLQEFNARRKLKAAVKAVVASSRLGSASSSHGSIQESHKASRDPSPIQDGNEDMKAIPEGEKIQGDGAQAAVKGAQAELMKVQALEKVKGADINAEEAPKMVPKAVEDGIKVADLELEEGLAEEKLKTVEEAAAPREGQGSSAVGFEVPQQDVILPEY
A digest of the protocol:
as §1

Experiment [3] concerns the target ErbB4 (h) (Homo sapiens, UniProt Q15303). A digest of the protocol:
as §1

Experiment [4] deals with T3, Hck (h) (Homo sapiens, UniProt P08631).
T3 construct: purchased Millipore
A digest of the protocol: as §1

Experiment [5] concerns the target T4, IR (h), activated (Homo sapiens, UniProt P06213).
T4 construct: purchased Millipore
The method, boiled down: as §1

In experiment [6] the target is Met(Y1248C) (h) (Homo sapiens, UniProt P08581, Y1230C). A digest of the protocol:
as §1

Experiment [7] has as its target T5, PKCδ (h) (Homo sapiens, UniProt Q05655).
T5 construct: purchased Millipore
A digest of the protocol: as §1

The target in experiment [8] is PRK2 (h) (Homo sapiens, UniProt Q16513). A digest of the protocol:
as §1

The target of experiment [9] is ROCK-II (h) (Homo sapiens, UniProt O75116). The method, boiled down:
as §1

In experiment [10] the target is T6, Tec (h) activated (Homo sapiens, UniProt P42680).
T6 sequence (P42680 1-631): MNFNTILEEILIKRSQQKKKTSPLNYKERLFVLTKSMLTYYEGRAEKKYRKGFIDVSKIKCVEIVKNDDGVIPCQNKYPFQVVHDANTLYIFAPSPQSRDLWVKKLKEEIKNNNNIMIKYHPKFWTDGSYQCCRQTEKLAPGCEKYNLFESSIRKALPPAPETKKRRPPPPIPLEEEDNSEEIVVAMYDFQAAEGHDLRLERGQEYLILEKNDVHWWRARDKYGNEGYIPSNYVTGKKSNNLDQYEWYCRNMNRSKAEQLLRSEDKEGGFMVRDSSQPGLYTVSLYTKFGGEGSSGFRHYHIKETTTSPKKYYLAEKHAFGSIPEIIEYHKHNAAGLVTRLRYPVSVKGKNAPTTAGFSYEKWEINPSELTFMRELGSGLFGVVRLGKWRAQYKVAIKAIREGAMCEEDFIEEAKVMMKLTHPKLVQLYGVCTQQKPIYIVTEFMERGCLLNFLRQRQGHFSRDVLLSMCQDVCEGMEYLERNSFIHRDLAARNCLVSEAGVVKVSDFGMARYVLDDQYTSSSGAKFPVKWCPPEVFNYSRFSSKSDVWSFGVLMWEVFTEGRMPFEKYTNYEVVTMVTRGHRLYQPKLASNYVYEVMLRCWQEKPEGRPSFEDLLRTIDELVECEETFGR
The method, boiled down:
as §1

The target in experiment [11] is T7, eEF-2K (h) (Homo sapiens, UniProt O00418).
T7 construct: purchased Millipore
A digest of the protocol: as §1

Sequence of ErbB4 (h) (Q15303 26-1308): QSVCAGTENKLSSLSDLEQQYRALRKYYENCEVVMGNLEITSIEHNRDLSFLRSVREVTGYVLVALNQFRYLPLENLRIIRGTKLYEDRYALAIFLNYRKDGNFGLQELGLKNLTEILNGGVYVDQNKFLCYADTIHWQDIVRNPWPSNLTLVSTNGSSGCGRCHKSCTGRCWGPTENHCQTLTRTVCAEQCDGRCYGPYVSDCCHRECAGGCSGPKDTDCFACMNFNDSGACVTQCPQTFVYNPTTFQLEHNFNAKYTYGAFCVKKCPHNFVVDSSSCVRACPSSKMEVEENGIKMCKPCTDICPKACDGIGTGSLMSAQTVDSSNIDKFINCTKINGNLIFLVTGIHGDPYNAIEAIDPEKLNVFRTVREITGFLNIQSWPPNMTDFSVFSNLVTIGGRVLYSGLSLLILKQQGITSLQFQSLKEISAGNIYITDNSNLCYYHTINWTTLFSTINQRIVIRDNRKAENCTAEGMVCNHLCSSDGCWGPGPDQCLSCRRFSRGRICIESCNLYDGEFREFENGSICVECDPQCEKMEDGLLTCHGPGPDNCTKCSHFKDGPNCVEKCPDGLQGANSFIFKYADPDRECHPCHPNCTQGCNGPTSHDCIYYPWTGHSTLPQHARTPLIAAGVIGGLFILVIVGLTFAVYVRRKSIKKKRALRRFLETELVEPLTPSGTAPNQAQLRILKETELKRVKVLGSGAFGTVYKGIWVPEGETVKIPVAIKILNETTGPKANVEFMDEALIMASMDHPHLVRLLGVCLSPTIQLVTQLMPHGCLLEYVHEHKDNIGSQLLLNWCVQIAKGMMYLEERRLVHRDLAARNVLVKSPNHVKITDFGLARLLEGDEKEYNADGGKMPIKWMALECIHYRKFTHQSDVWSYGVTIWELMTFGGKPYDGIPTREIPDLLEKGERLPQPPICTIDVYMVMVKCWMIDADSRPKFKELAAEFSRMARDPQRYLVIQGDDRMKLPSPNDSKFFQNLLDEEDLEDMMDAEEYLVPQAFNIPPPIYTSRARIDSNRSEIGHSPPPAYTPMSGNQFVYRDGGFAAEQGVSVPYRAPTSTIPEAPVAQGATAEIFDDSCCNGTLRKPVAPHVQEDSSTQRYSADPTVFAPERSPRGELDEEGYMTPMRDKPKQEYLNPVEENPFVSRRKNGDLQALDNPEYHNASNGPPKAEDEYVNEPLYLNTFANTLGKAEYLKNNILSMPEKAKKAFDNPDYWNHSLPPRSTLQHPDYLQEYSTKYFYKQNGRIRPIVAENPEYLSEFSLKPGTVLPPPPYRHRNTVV
T5 sequence (Q05655 whole entry): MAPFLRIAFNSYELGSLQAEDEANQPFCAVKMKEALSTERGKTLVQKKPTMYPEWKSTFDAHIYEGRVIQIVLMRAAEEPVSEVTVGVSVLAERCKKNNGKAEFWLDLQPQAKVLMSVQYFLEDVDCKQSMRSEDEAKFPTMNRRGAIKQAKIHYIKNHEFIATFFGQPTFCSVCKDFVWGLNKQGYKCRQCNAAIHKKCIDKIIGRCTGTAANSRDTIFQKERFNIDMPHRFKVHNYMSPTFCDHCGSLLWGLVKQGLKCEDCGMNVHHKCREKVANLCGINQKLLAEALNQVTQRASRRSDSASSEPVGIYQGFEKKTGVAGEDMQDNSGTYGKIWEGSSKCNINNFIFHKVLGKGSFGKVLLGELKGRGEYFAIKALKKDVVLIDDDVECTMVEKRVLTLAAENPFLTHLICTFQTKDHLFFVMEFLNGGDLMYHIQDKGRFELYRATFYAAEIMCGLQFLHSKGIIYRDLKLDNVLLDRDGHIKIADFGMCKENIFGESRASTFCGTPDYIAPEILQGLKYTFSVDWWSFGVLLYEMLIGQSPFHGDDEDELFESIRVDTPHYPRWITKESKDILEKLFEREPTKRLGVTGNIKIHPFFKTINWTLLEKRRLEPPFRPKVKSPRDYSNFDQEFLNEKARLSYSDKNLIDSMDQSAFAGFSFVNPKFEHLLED
T4 sequence (P06213 1005-1310 limits assumed): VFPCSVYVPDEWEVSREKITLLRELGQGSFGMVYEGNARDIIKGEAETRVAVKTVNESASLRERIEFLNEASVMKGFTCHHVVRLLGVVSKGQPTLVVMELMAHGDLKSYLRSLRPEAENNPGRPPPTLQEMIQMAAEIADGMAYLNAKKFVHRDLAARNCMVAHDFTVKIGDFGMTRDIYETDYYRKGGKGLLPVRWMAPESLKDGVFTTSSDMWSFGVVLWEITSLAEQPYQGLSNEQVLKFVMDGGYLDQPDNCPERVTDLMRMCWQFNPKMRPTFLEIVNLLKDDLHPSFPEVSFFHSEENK
Sequence of PRK2 (h) (Q16513 whole entry): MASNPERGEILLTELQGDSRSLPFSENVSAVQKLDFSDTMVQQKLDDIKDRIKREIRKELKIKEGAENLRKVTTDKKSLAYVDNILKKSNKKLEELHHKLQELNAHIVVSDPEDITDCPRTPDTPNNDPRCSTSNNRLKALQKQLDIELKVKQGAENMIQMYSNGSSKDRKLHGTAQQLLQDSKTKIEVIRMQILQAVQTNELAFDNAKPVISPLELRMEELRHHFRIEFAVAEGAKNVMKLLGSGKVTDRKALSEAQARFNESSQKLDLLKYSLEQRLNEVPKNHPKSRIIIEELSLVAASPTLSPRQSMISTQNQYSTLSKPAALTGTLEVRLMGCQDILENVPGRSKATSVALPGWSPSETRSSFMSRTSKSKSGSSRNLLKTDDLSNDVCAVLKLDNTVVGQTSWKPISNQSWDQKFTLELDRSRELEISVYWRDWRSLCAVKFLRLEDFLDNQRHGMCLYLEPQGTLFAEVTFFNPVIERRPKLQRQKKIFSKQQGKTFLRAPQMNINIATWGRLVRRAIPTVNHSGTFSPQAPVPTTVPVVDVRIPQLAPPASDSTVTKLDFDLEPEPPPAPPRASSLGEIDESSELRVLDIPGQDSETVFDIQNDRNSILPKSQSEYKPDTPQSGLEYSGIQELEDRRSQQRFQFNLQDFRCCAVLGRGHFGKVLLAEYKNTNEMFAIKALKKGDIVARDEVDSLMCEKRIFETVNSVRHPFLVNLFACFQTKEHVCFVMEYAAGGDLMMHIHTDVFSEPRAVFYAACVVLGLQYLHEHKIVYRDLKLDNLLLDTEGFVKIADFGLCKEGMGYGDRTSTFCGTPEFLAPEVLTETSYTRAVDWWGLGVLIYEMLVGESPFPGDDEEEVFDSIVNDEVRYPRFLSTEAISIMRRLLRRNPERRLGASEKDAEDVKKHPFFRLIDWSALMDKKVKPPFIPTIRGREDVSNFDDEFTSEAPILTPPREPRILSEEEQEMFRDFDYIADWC
Sequence of ROCK-II (h) (O75116 whole entry): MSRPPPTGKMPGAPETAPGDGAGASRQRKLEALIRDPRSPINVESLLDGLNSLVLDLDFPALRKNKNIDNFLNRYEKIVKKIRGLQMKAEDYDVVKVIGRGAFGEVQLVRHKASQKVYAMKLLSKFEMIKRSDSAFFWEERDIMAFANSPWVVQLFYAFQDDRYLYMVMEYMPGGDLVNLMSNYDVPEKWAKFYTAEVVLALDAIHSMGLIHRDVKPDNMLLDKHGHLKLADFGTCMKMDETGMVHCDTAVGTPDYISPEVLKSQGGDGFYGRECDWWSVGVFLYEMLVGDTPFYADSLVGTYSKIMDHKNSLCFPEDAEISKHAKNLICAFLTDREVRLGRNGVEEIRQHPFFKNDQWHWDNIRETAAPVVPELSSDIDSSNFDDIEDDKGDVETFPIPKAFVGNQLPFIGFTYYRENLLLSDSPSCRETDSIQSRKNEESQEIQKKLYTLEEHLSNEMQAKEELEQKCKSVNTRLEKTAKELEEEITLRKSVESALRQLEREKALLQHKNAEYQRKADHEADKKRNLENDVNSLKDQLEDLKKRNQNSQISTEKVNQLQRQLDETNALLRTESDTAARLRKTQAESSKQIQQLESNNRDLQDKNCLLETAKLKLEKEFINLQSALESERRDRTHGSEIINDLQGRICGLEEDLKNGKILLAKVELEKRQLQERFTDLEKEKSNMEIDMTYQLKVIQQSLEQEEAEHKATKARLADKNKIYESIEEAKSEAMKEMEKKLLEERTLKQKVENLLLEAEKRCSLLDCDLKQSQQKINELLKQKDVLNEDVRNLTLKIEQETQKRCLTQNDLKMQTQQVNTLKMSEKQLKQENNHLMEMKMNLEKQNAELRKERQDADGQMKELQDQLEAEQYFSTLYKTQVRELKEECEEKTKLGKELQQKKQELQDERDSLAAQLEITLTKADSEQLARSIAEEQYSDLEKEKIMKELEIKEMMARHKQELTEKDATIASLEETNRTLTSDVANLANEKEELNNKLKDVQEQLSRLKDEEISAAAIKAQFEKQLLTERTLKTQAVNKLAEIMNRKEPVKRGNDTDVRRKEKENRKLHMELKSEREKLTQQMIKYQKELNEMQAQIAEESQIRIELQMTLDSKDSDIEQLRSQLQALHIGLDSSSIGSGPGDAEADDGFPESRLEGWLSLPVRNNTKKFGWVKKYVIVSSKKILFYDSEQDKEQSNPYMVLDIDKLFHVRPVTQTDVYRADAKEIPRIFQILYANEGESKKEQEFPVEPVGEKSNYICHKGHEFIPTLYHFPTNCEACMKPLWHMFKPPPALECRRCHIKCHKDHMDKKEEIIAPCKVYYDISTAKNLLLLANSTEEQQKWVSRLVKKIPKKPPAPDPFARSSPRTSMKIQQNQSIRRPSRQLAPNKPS

As to KAFAKLAARLYRKALARQLGVAA [MMI-0400], the “% activity” value is on record as 76% in [1]; 18% in [2]; 0% in experiment [3]; 72% in experiment [4]; 59% in experiment [5]; 36% in [6]. The “% activity” value in experiment [7] is 90%; in [8], 27%; in experiment [9], 77%; in [10] it was 29%; in experiment [11], 43%.
On to “YARAAARQARAKALNRQLGVA (Mammalian) [MMI-0200]”, for which the “% activity” value amounted to 93% in experiment [1]; 71% in experiment [2]; 82% in experiment [3]; 141% in experiment [6]; 101% in experiment [7]; 74% in experiment [8]. Also, the “% activity” value is listed as 85% in experiment [9] and 77% in experiment [10].
In the case of “HRRIKAWLKKIKALARQLGVAA (Mammalian) [MMI-0500]”, the “% activity” value in experiment [1] was 72%; in experiment [2], −1%; in experiment [3] it was 2%; in [4] it was 78%; in [5], 90%; in [6] it was 73%. Besides, the “% activity” value turned out to be 61% in experiment [7]; 7% in experiment [8]; 2% in experiment [9]; 33% in experiment [10]; 43% in [11].
FAKLAARLYRKALARQLGVAA [MMI-0300]: the “% activity” value in [1] amounted to 67%; in experiment [2], 17%; in [3], 40%; in experiment [4], 72%; in [5] it was 79%; in experiment [6], 84%. The “% activity” value in experiment [7] is reported as 101%; in experiment [8] it was 33%; in experiment [9], 74%; in [10], 56%; in experiment [11], 91%.
